Measurements published in paper PMC10761686.

What was measured:
[1] = target: actin from rabbit skeletal muscle, as filaments (F-actin) capped at their barbed ends by gelsolin (rabbit) (UniProt P68135)
[2] = target: actin from rabbit skeletal muscle, as filaments (F-actin) capped at their barbed ends by gelsolin (rabbit) (UniProt P68135); remark: listed apart in the source

tropomodulin 1 (TMOD1) with the patient variant p.R189W, purified recombinant human (from UniProt P28289-1 1-359) (natural protein)
capping activity against TMOD1^wt: inhibition of pyrene-actin polymerisation at pointed ends of long filaments (1:100 gelsolin to actin), without TPM1 (fold weaker than TMOD1^wt) [1]: 2 | capping activity against TMOD1^wt: inhibition of pyrene-actin polymerisation at pointed ends of short filaments (1:10 gelsolin to actin), without TPM1 (fold weaker than TMOD1^wt) [1]: 2 | inhibition of pyrene-actin depolymerisation from pointed ends against TMOD1^wt, long filaments (1:100 gelsolin to actin), without TPM1 (fold weaker than TMOD1^wt) [2]: 2 | inhibition of pyrene-actin depolymerisation from pointed ends against TMOD1^wt, short filaments (1:10 gelsolin to actin), without TPM1 (fold weaker than TMOD1^wt) [2]: 5
